Results taken from patent CN101357942A.

Columns and labels:
[1] = molecular target: 天然Stx2 (natural Shiga toxin II of enterohaemorrhagic E. coli O157:H7) (肠出血性大肠杆菌(EHEC) O157:H7) (UniProt P09385); test: cell-based or functional assay
[2] = molecular target: 天然Stx2 (natural Shiga toxin II of enterohaemorrhagic E. coli O157:H7) (肠出血性大肠杆菌(EHEC) O157:H7) (UniProt P09385)

UniProt P09385, sequence (P09385 23-319, chain 1 of 2): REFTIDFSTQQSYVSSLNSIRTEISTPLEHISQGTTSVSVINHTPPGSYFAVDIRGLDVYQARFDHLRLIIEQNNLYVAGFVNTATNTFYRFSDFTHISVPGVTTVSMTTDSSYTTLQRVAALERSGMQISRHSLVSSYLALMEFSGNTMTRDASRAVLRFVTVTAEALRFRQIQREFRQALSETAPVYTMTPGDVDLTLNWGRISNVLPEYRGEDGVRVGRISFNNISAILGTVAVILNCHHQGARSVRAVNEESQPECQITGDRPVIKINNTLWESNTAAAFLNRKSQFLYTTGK
UniProt P09385, sequence (P09386 20-89, chain 2 of 2, further chain): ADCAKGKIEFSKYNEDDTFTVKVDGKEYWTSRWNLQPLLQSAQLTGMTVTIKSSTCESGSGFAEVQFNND

B1: 1F2Fab抗体 (recombinant Fab of 1F2, expressed from Pcomb3X-1F2Fab in E. coli XL-blue) (Fab, V domains shown)
VH: SGGGLVQPGGSLKLSCAASGFTFSVYGMSWVRQTPDKRLELVATINNNGGSTYYPDSVKGRFTISRDNAKNTLYLQMSSLKSEDTAMYYCASIPLFGNYWGQGTSVTVSS
VL: MTQTPLSLPVSLGDQASISCRSSQSIVHSNGNTYLEWYLQKPGQSPKFLIYKVSRFSGVPDRFSGSGSGTDFTLKISRVEAEDLGVYYCFQGSHVPWTFGGGTKLEIKR
With B1 the 对Stx2细胞毒作用的抑制率 (Vero cells, MTT) [1] was 83% and the affinity relative to parental mAb 1F2 [2] was 85%.
